Experimental data as given in paper PMC10914751 (Nature Communications, 2024).

B3: Plk4 CPB(581–808) (domain or fragment, UniProt O00444 581-808, looked up)
chain: GYQNRTLRSITSPLVAHRLKPIRQKTKKAVVSILDSEEVCVELVKEYASQEYVKEVLQISSDGNTITIYYPNGGRGFPLADRPPSPTDNISRYSFDNLPEKYWRKYQYASRFVQLVRSKSPKITYFTRYAKCILMENSPGADFEVWFYDGVKIHKTEDFIQVIEKTGKSYTLKSESEVNSLKEEIKMYMDHANEGHRICLALESIISEEERKTRSAPFFPIIIGRKPG
notes: Polo-like kinase 4 (Plk4), cryptic polo-box (CPB), residues 581-808; a TEV site follows His-MBP and the legends call the protein CPB(581–808); Two CPB chains are estimated for each Vpr•VprBP; source: E. coli, purified

Assays:
Plk1 = molecular target: T1, Plk1 (UniProt P53350 1-603); test: co-IP; HEK293T cells transfected with the indicated constructs; TBSN buffer (20 mM Tris-HCl pH 8.0, 120 mM NaCl, 0.5% Nonidet P-40, 5 mM EGTA, 1.5 mM EDTA, 2 mM DTT); immunoblot; Supplementary Fig. 2b under thymidine or nocodazole treatment; settings: partners not purified
T1 construct: Polo-like kinase 1 (Plk1); also called mitotic Plk1; source: HEK293T, transfected, in lysate

Plk4 CPB(581–808) = molecular target: B3; test: SEC; purified proteins (Vpr, VprBP WD40-AR, Plk4 CPB, DDB1); TEV-digested HisTrap eluate of Vpr•VprBP mixed with Plk4 CPB; 20 mM Tris-HCl pH 7.5, 100 mM NaCl, 10% glycerol; stoichiometry estimated from Coomassie intensity; settings: both partners purified
[1] = molecular target: T2, Vpr•VprBP WD40-AR complex ( | HIV-1 (NL4-3 isolate), UniProt Q9Y4B6 1057-1507; P12520 1-96); test: as above; settings: both partners purified
T2 construct: DNA synthesised by GenScript; TEV digestion is told for the SEC sample; also called VprBP (WD40-AR)•Vpr complex; source: Trichoplusia ni (Tni)-FNL insect cells, co-expressed, purified (HisTrap, TEV digestion); not shown: His, N-terminal, cleaved; MBP, N-terminal, cleaved; copies: 1 + 1

DDB1 (purified) = molecular target: T3, DDB1 (purified) (UniProt Q16531 1-1140); test: as above; settings: both partners purified
T3 construct: DDB1
T3 sequence (Q16531 whole entry): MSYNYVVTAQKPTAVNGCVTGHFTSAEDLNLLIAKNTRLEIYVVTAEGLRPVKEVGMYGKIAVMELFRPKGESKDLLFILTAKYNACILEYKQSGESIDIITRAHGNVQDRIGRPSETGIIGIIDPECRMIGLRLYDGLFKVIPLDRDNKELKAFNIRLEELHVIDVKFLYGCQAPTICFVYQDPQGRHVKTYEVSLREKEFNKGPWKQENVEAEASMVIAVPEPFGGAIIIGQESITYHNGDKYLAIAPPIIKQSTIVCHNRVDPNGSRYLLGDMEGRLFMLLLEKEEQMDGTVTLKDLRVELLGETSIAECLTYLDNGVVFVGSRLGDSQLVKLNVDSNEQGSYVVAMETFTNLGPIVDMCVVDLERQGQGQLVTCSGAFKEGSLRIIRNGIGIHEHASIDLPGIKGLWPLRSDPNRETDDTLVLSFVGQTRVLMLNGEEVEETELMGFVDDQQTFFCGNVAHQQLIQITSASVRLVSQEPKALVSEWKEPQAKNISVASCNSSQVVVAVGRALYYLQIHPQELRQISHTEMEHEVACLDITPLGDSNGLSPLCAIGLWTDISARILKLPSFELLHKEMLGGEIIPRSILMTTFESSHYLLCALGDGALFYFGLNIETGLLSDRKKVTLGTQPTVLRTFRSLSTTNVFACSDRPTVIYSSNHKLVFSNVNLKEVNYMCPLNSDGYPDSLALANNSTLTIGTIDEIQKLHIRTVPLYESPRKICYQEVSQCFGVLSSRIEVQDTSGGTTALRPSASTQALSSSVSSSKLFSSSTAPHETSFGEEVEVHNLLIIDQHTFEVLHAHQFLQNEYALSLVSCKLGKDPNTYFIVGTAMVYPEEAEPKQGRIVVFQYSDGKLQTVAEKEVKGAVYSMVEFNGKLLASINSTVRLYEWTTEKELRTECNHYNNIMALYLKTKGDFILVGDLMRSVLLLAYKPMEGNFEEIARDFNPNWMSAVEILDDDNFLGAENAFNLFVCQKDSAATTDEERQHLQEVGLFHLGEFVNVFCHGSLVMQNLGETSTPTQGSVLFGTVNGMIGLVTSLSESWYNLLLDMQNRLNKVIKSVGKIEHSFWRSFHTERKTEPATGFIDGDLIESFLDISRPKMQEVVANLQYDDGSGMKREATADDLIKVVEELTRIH

T1 sequence (P53350 whole entry): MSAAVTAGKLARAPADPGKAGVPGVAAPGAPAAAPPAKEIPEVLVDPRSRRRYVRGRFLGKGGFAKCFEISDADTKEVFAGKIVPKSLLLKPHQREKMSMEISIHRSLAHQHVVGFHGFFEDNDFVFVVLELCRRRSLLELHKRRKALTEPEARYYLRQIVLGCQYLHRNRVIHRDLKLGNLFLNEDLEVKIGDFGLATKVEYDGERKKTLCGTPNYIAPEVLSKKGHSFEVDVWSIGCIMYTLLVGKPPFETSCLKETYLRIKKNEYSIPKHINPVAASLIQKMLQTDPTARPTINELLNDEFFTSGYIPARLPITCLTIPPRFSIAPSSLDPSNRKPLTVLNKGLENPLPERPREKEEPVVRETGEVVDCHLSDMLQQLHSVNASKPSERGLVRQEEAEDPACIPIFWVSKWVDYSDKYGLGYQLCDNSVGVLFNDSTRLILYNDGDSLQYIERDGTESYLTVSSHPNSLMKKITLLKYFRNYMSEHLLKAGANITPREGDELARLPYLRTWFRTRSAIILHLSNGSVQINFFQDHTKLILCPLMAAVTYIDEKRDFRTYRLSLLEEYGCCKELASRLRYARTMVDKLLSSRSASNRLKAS

B1: VprBP (transfected; construct not specified in the text) (natural protein)
chain: not shown
notes: VprBP (DDB1-CUL4-Associated Factor 1); may be full length or a WD40-containing fragment, and in some panels perhaps the endogenous protein; source: HEK293T, transfected, in lysate
Q: For B1, which “fold weaker binding than Plk4” value (Plk1) is on record?
A: ~3 fold

B2: Vpr (co-expressed with VprBP WD40-AR in insect cells) (natural protein)
chain: MEQAPEDQGPQREPYNEWTLELLEELKSEAVRHFPRIWLHNLGQHIYETYGDTWAGVEAIIRILQQLLFIHFRIGCRHSRIGVTRQRRARNGASRS
notes: also called 11-kDa Vpr
Q: Does B2 bind (Plk4 CPB(581–808))?
A: binds

Q: B3 was tested. Which “stoichiometry N” value [1] did it give?
A: ~2

B4: VprBP WD40-AR(1057–1507) (domain or fragment)
chain: not shown
notes: source: Trichoplusia ni (Tni)-FNL insect cells, purified (HisTrap, TEV digestion, SEC); not shown: His, N-terminal, cleaved; MBP, N-terminal, cleaved
Q: Does B4 bind (DDB1 (purified))?
A: binds
